Results on 94 variants are retold here after the supplement of paper PMC10567573.

B1: GNB5 (parent)
chain: DINSVRYYPSGDAFASGSDDATCR
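Note: lentivirally expressed fusions sorted by FACS into six bins by GFP to DsRed ratio, PSI derived from sequencing read proportions per bin multiplied by bin number.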

The variants in this data set derive from B1. The data set is described as follows: protein stability index of a GFP-peptide fusion (GPS, HEK-293T) (PSI 1-6); higher = more stable. As to conditions: c terminus: a fixed tail appended.
Regarding DINSCRYYPSGDAFASGSDDATCR [V5C], the protein stability index was 3.81.
On to DINSVRYYPSGDAAASGSDDATCR [F14A], for which the protein stability index is 4.21.
The result for DINSVRYYPSGDADASGSDDATCR [F14D] reads 4.16; that for DINSVRYYPSGDAGASGSDDATCR [F14G], 5.08; that for DINSVRYYPSGDAEASGSDDATCR [F14E], 5.
On to DINSVRYYPSGDACASGSDDATCR [F14C], for which the protein stability index came to 4.16.
With DINLVRYYPSGDAFASGSDDATCR [S4L], the protein stability index came out at 3.42.
For the variant DINMVRYYPSGDAFASGSDDATCR [S4M], the protein stability index worked out at 4.21.
Consider DINTVRYYPSGDAFASGSDDATCR [S4T], for which the protein stability index turned out to be 4.23.
As to DINKVRYYPSGDAFASGSDDATCR [S4K], the protein stability index amounted to 4.08.
The figure for DINNVRYYPSGDAFASGSDDATCR [S4N] is 3.55.
Consider DINQVRYYPSGDAFASGSDDATCR [S4Q], for which the protein stability index worked out at 3.83.
The result for DINPVRYYPSGDAFASGSDDATCR [S4P] reads 4.32.
The figure for DINIVRYYPSGDAFASGSDDATCR [S4I] is 3.55; for DINWVRYYPSGDAFASGSDDATCR [S4W] it is 3.22.
Take DINYVRYYPSGDAFASGSDDATCR [S4Y]: the protein stability index stood at 3.75.
For the variant DINRVRYYPSGDAFASGSDDATCR [S4R], the protein stability index was 3.81.
The figure for DINVVRYYPSGDAFASGSDDATCR [S4V] is 2.55; for DINSVRPYPSGDAFASGSDDATCR [Y7P] it is 4.46; for DINSVRGYPSGDAFASGSDDATCR [Y7G] it is 4.39.
As for DINSVRSYPSGDAFASGSDDATCR [Y7S], the protein stability index was 4.69.
The figure for DINSVRFYPSGDAFASGSDDATCR [Y7F] is 3.87; for DINSVREYPSGDAFASGSDDATCR [Y7E] it is 5.19; for DINSVRCYPSGDAFASGSDDATCR [Y7C] it is 3.87.
Take DINSVRAYPSGDAFASGSDDATCR [Y7A]: the protein stability index came to 4.5.
Take DINSVRMYPSGDAFASGSDDATCR [Y7M]: the protein stability index worked out at 4.12.
Take DINSVRHYPSGDAFASGSDDATCR [Y7H]: the protein stability index was found to be 4.38.
For DINSVRIYPSGDAFASGSDDATCR [Y7I], the protein stability index turned out to be 3.76.
DINSVRWYPSGDAFASGSDDATCR [Y7W]: the protein stability index worked out at 3.11.
As for DINSVRRYPSGDAFASGSDDATCR [Y7R], the protein stability index stood at 4.2.
For the variant DINSVRTYPSGDAFASGSDDATCR [Y7T], the protein stability index amounted to 4.64.
As to DINSVRDYPSGDAFASGSDDATCR [Y7D], the protein stability index worked out at 4.77.
For the variant DINSVRQYPSGDAFASGSDDATCR [Y7Q], the protein stability index was found to be 4.21.
The figure for DINSVRNYPSGDAFASGSDDATCR [Y7N] is 4.26; for DINSVRLYPSGDAFASGSDDATCR [Y7L] it is 3.61; for DINSVRVYPSGDAFASGSDDATCR [Y7V] it is 4.51.
Regarding DINSVRKYPSGDAFASGSDDATCR [Y7K], the protein stability index is 4.35.
Take DINSVDYYPSGDAFASGSDDATCR [R6D]: the protein stability index stood at 4.58.
The figure for DINSVQYYPSGDAFASGSDDATCR [R6Q] is 4.64.
Take DINSVLYYPSGDAFASGSDDATCR [R6L]: the protein stability index was 3.56.
On to DINSVHYYPSGDAFASGSDDATCR [R6H], for which the protein stability index came out at 4.26.
For the variant DINSVIYYPSGDAFASGSDDATCR [R6I], the protein stability index stood at 3.88.
As to DINSVTYYPSGDAFASGSDDATCR [R6T], the protein stability index is 4.82.
The figure for DINSVGYYPSGDAFASGSDDATCR [R6G] is 4.3.
For DINSVFYYPSGDAFASGSDDATCR [R6F], the protein stability index came out at 3.57.
Turning to DINSVNYYPSGDAFASGSDDATCR [R6N], the protein stability index amounted to 4.31.
DINSVSYYPSGDAFASGSDDATCR [R6S]: the protein stability index stood at 4.41.
DINSVPYYPSGDAFASGSDDATCR [R6P]: the protein stability index turned out to be 4.29.
As to DINSVVYYPSGDAFASGSDDATCR [R6V], the protein stability index amounted to 3.91.
Regarding DINSVEYYPSGDAFASGSDDATCR [R6E], the protein stability index amounted to 5.13.
As to DINSVMYYPSGDAFASGSDDATCR [R6M], the protein stability index was 4.04.
For the variant DINSVWYYPSGDAFASGSDDATCR [R6W], the protein stability index came to 3.33.
For DINSVCYYPSGDAFASGSDDATCR [R6C], the protein stability index was found to be 3.9.
DINSVKYYPSGDAFASGSDDATCR [R6K]: the protein stability index came out at 4.34.
For the variant DINSVYYYPSGDAFASGSDDATCR [R6Y], the protein stability index came out at 3.62.
As to DINSVAYYPSGDAFASGSDDATCR [R6A], the protein stability index came out at 4.44.
Take DINSVRYYPSGKAFASGSDDATCR [D12K]: the protein stability index is 3.
The result for DINSVRYYPSGWAFASGSDDATCR [D12W] reads 2.77.
Turning to DINSVRYYPSGMAFASGSDDATCR [D12M], the protein stability index came out at 2.7.
With DINSVRYYPSGSAFASGSDDATCR [D12S], the protein stability index stood at 3.46.
Take DINSVRYYPSGEAFASGSDDATCR [D12E]: the protein stability index was found to be 3.61.
Regarding DINSVRYYPSGLAFASGSDDATCR [D12L], the protein stability index came to 2.87.
As to DINSVRYYPSGCAFASGSDDATCR [D12C], the protein stability index worked out at 2.66.
On to DINSVRYYPSGGAFASGSDDATCR [D12G], for which the protein stability index amounted to 3.54.
With DINSVRYYPSGYAFASGSDDATCR [D12Y], the protein stability index stood at 3.19.
Take DINSVRYYPSGQAFASGSDDATCR [D12Q]: the protein stability index is 3.46.
The result for DINSVRYYPSGVAFASGSDDATCR [D12V] reads 2.94; that for DINSVRYYPSGPAFASGSDDATCR [D12P], 3.34.
Take DINSVRYYPSGIAFASGSDDATCR [D12I]: the protein stability index was determined as 3.08.
On to DINSVRYYPSGAAFASGSDDATCR [D12A], for which the protein stability index turned out to be 3.4.
With DINSVRYYPSGHAFASGSDDATCR [D12H], the protein stability index is 3.34.
As to DINSVRYYPSGRAFASGSDDATCR [D12R], the protein stability index is 3.33.
In the case of DINSVRYYPSGNAFASGSDDATCR [D12N], the protein stability index was determined as 3.06.
As to DINSVRYYPSGFAFASGSDDATCR [D12F], the protein stability index came out at 2.69.
Regarding DINSVRYYPSGTAFASGSDDATCR [D12T], the protein stability index came to 3.31.
On to DINSVRYYPSGDMFASGSDDATCR [A13M], for which the protein stability index was 3.69.
Consider DINSVRYYPSGDRFASGSDDATCR [A13R], for which the protein stability index came to 3.81.
Regarding DINSVRYYPSGDTFASGSDDATCR [A13T], the protein stability index stood at 4.
Take DINSVRYYPSGDVFASGSDDATCR [A13V]: the protein stability index came to 3.69.
For the variant DINSVRYYPSGDPFASGSDDATCR [A13P], the protein stability index stood at 4.14.
For the variant DINSVRYYPSGDKFASGSDDATCR [A13K], the protein stability index was found to be 3.53.
The result for DINSVRYYPSGDCFASGSDDATCR [A13C] reads 3.71.
The figure for DINSVRYYPSGDIFASGSDDATCR [A13I] is 3.28; for DINSVRYYPSGDLFASGSDDATCR [A13L] it is 3.44.
For the variant DINSVRYYPSGDFFASGSDDATCR [A13F], the protein stability index stood at 3.12.
On to DINSVRYYPSGDWFASGSDDATCR [A13W], for which the protein stability index came out at 3.42.
DINSVRYYPSGDEFASGSDDATCR [A13E]: the protein stability index was 4.66.
As for DINSVRYYPSGDGFASGSDDATCR [A13G], the protein stability index amounted to 4.03.
The figure for DINSVRYYPSGDHFASGSDDATCR [A13H] is 4.02.
On to DINSVRYYPSGDQFASGSDDATCR [A13Q], for which the protein stability index was found to be 4.4.
As to DINSVRYYPSGDNFASGSDDATCR [A13N], the protein stability index stood at 3.98.
As for DINSVRYYPSGDYFASGSDDATCR [A13Y], the protein stability index came out at 3.22.
On to DINSVRYYPSGDSFASGSDDATCR [A13S], for which the protein stability index was found to be 3.88.
The figure for DINSVRYYPSGDDFASGSDDATCR [A13D] is 4.47.
